According to PMC12809078:

Molecular target: full-length SUMO-CtBP2 (human) (UniProt P56545)
Assay: SEC; Superose 6 Increase 10/300 GL; 20 mM Tris-HCl pH 8.0, 150 mM NaCl, 2 mM DTT; 0.35 ml/min

stoichiometry N: 4
Substance: full-length SUMO-CtBP2, P56545 1-445 (natural protein; other documents disagree on this pair)
